Patent EP4786492A1

Columns and labels:
[1] = biological target: monkey DLL3 on CHO-K1-cyno DLL3 cells (cynomolgus monkey); assay: FACS, CHO-K1-cyno DLL3 cells, 0.16 nM antibody
[2] = biological target: monkey DLL3 on CHO-K1-cyno DLL3 cells (cynomolgus monkey); assay: FACS, CHO-K1-cyno DLL3 cells, 0.00128 nM antibody
[3] = biological target: monkey DLL3 on CHO-K1-cyno DLL3 cells (cynomolgus monkey); assay: FACS, CHO-K1-cyno DLL3 cells, 0.8 nM antibody
[4] = biological target: human DLL1 protein (Acro, Cat. No. DL1-H52H8) (human) (UniProt O00548); assay: ELISA, coated hDLL1; maximum over 0.1, 1, 10, 100 nM antibody
[5] = biological target: monkey DLL3 on CHO-K1-cyno DLL3 cells (cynomolgus monkey); assay: FACS, CHO-K1-cyno DLL3 cells, 0.0064 nM antibody
[6] = biological target: mouse DLL3 on CHO-K1-mDLL3 cells (mouse) (UniProt O88516); assay: FACS, CHO-K1-mDLL3 cells, 0.0064 nM antibody
[7] = biological target: human DLL3 protein expressed on CHO-K1 recombinant cells (human DLL3 extracellular segment fused to EpCAM transmembrane and intracellular regions) (human) (UniProt Q9NYJ7); assay: FACS, CHO-K1 hDLL3 cells, 0.16 nM antibody
[8] = biological target: human delta-like ligand 3 (DLL3) on SHP77 cells (human) (UniProt Q9NYJ7); assay: FACS on SHP77 cells
[9] = biological target: mouse DLL3 on CHO-K1-mDLL3 cells (mouse) (UniProt O88516); assay: FACS, CHO-K1-mDLL3 cells, 0.032 nM antibody
[10] = biological target: mouse DLL3 on CHO-K1-mDLL3 cells (mouse) (UniProt O88516); assay: FACS, CHO-K1-mDLL3 cells, 4 nM antibody
[11] = biological target: human DLL3 protein expressed on CHO-K1 recombinant cells (human DLL3 extracellular segment fused to EpCAM transmembrane and intracellular regions) (human) (UniProt Q9NYJ7); assay: FACS, CHO-K1 hDLL3 cells, 0.8 nM antibody
[12] = biological target: mouse DLL3 on CHO-K1-mDLL3 cells (mouse) (UniProt O88516); assay: FACS, CHO-K1-mDLL3 cells, 100 nM antibody
[13] = biological target: human DLL3 protein expressed on CHO-K1 recombinant cells (human DLL3 extracellular segment fused to EpCAM transmembrane and intracellular regions) (human) (UniProt Q9NYJ7); assay: FACS, CHO-K1 hDLL3 cells, 0.00128 nM antibody
[14] = biological target: human DLL3 protein expressed on CHO-K1 recombinant cells (human DLL3 extracellular segment fused to EpCAM transmembrane and intracellular regions) (human) (UniProt Q9NYJ7); assay: FACS, CHO-K1 hDLL3 cells, 20 nM antibody
[15] = biological target: human DLL3 protein expressed on CHO-K1 recombinant cells (human DLL3 extracellular segment fused to EpCAM transmembrane and intracellular regions) (human) (UniProt Q9NYJ7); assay: FACS, CHO-K1 hDLL3 cells, 100 nM antibody
[16] = biological target: monkey DLL3 on CHO-K1-cyno DLL3 cells (cynomolgus monkey); assay: FACS, CHO-K1-cyno DLL3 cells, 100 nM antibody
[17] = biological target: mouse DLL3 on CHO-K1-mDLL3 cells (mouse) (UniProt O88516); assay: FACS, CHO-K1-mDLL3 cells, 0.16 nM antibody
[18] = biological target: mouse DLL3 on CHO-K1-mDLL3 cells (mouse) (UniProt O88516); assay: FACS, CHO-K1-mDLL3 cells, 0.00128 nM antibody
[19] = biological target: human DLL3 protein (extracellular segment, His tag) (human) (UniProt Q9NYJ7); assay: SPR (Biacore 8K), antibody captured on Protein A chip, DLL3 antigen in solution, 1:1 Langmuir fit
[20] = biological target: human DLL3 protein expressed on CHO-K1 recombinant cells (human DLL3 extracellular segment fused to EpCAM transmembrane and intracellular regions) (human) (UniProt Q9NYJ7); assay: FACS, CHO-K1 hDLL3 cells, 4 nM antibody
[21] = biological target: monkey DLL3 on CHO-K1-cyno DLL3 cells (cynomolgus monkey); assay: FACS, CHO-K1-cyno DLL3 cells, 20 nM antibody
[22] = biological target: human DLL3 protein expressed on CHO-K1 recombinant cells (human DLL3 extracellular segment fused to EpCAM transmembrane and intracellular regions) (human) (UniProt Q9NYJ7); assay: FACS, CHO-K1 hDLL3 cells, 0.0064 nM antibody
[23] = biological target: mouse DLL3 on CHO-K1-mDLL3 cells (mouse) (UniProt O88516); assay: FACS, CHO-K1-mDLL3 cells, 20 nM antibody
[24] = biological target: mouse DLL3 on CHO-K1-mDLL3 cells (mouse) (UniProt O88516); assay: FACS, CHO-K1-mDLL3 cells, 0.8 nM antibody
[25] = biological target: monkey DLL3 on CHO-K1-cyno DLL3 cells (cynomolgus monkey); assay: FACS, CHO-K1-cyno DLL3 cells, 0.032 nM antibody
[26] = biological target: human DLL4 protein (Acro, Cat. No. DL4-H5227) (human) (UniProt Q9NR61); assay: ELISA, coated hDLL4; maximum over 0.1, 1, 10, 100 nM antibody
[27] = biological target: human DLL3 protein expressed on CHO-K1 recombinant cells (human DLL3 extracellular segment fused to EpCAM transmembrane and intracellular regions) (human) (UniProt Q9NYJ7); assay: FACS, CHO-K1 hDLL3 cells, 0.032 nM antibody
[28] = biological target: monkey DLL3 on CHO-K1-cyno DLL3 cells (cynomolgus monkey); assay: FACS, CHO-K1-cyno DLL3 cells, 4 nM antibody

Chain of human DLL3 protein (extracellular segment, His tag) (human) (Q9NYJ7 27-492): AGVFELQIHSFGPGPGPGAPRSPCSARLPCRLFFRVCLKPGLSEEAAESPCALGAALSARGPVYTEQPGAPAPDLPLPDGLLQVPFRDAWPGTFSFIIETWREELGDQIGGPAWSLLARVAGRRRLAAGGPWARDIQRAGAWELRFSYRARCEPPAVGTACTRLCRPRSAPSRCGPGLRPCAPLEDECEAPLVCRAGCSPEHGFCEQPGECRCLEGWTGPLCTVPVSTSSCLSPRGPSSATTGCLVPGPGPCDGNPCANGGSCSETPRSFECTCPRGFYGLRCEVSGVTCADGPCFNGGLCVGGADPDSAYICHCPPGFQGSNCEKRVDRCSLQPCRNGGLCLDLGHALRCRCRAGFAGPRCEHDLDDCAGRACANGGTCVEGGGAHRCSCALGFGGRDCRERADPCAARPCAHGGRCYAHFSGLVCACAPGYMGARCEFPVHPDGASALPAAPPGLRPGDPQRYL
Chain of mouse DLL3 on CHO-K1-mDLL3 cells (mouse) (O88516 other isoform, or with tags, fused parts or gaps limits assumed): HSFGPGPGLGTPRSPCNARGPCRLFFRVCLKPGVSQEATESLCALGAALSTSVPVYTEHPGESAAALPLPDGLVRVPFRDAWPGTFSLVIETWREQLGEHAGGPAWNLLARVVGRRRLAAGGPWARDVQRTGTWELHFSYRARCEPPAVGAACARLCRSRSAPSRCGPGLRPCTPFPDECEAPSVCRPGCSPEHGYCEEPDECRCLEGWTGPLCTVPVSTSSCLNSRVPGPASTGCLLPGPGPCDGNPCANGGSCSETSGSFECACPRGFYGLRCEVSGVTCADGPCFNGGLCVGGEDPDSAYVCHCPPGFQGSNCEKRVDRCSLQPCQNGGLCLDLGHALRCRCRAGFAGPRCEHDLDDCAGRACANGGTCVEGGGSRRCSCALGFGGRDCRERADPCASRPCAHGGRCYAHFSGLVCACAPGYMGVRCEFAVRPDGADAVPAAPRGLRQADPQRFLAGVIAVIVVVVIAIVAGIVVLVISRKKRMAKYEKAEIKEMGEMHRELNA
Chain of human DLL4 protein (Acro, Cat. No. DL4-H5227) (human) (Q9NR61 27-524 limits assumed): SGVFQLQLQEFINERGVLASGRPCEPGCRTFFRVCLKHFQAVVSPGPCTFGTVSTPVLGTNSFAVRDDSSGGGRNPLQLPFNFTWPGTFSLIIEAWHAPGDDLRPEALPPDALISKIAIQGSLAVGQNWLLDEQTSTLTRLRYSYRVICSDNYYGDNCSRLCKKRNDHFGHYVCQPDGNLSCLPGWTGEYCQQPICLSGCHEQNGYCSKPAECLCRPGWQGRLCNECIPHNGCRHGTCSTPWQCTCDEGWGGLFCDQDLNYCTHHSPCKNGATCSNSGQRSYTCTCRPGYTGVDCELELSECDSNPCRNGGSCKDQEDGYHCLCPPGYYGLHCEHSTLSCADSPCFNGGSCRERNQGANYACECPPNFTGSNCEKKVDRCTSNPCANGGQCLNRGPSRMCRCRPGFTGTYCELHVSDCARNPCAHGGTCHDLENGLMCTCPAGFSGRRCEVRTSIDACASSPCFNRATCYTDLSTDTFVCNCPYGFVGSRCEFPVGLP
Chain of human DLL1 protein (Acro, Cat. No. DL1-H52H8) (human) (O00548 18-540 limits assumed): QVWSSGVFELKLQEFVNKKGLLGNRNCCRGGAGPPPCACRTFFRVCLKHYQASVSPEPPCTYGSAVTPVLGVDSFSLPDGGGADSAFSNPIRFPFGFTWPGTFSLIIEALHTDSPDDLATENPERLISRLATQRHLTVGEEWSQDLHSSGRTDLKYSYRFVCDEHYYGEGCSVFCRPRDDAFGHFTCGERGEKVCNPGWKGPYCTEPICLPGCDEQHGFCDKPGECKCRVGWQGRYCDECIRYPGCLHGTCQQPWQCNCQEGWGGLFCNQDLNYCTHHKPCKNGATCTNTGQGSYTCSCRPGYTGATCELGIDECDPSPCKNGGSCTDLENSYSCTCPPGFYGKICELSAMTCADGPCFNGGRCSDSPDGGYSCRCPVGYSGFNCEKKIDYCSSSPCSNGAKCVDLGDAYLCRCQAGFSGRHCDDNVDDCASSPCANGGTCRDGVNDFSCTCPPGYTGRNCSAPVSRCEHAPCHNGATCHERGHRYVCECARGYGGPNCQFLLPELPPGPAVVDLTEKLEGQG
Chain of monkey DLL3 on CHO-K1-cyno DLL3 cells (cynomolgus monkey) (chain, as listed by the source limits assumed): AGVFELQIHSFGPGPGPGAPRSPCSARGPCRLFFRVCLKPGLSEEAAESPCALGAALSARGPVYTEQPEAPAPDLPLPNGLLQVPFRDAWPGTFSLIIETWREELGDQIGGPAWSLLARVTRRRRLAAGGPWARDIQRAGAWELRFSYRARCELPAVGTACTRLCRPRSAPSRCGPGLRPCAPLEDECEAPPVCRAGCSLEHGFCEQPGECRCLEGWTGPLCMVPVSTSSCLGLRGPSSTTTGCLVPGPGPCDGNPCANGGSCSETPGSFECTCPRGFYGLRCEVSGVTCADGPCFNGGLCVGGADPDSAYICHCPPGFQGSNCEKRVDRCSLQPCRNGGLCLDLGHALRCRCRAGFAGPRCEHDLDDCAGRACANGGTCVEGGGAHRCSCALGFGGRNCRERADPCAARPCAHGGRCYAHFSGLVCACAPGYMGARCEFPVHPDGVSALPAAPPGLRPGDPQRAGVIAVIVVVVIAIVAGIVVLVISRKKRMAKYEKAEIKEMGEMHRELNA
Chain of human DLL3 protein expressed on CHO-K1 recombinant cells (human DLL3 extracellular segment fused to EpCAM transmembrane and intracellular regions) (human) (Q9NYJ7 other isoform, or with tags, fused parts or gaps limits assumed): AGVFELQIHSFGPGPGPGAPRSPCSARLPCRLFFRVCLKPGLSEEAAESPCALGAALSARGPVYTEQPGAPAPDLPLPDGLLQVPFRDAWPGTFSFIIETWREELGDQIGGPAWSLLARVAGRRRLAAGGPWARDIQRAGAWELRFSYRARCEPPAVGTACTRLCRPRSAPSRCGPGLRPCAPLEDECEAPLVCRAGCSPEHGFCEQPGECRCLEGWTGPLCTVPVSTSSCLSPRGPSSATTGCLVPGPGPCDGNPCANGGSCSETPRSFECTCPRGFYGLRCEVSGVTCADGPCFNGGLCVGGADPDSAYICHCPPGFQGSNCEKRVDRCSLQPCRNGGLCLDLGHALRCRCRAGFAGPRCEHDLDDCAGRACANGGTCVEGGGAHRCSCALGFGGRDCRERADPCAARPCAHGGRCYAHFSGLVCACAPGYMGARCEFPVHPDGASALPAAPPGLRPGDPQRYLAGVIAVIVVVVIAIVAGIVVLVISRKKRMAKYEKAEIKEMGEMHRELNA
Chain of human delta-like ligand 3 (DLL3) on SHP77 cells (human) (Q9NYJ7 27-618, stated change not applied): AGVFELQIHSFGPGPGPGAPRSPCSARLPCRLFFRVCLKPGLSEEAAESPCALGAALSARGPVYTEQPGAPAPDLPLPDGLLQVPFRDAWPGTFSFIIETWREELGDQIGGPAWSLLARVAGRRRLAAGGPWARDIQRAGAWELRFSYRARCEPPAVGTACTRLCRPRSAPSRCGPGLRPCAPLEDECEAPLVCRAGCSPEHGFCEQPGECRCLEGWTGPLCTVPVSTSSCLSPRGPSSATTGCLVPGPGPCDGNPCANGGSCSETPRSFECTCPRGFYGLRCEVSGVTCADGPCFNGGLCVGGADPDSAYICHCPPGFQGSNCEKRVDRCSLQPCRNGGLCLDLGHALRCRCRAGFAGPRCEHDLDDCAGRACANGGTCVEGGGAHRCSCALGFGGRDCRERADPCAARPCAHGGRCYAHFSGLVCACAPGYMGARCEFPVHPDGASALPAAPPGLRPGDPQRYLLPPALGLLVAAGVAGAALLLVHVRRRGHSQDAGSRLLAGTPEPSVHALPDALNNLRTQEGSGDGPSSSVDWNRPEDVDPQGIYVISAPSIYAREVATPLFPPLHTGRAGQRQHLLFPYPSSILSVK

B1: Hab009VL1aVH1-hFc (scFv, part only; not given: scFv linker and human IgG1 Fc, V domains shown, not shown: another chain or arm of the molecule; a dimerising Fc or GST; small tags and cut ends)
VL: DIVMTQSPLSLPVTPGEPASISCRASQTISDYLHWYLQKPGQSPQLLIKYASQSISGVPDRFSGSGSGSDFTLKISRVEAEDVGVYYCQQGHSFPLTFGQGTKLEIK
VH: EVQLVQSGAEVKKPGASVKVSCKASGYTFTSYWMHWVRQAPGQRLEWMGTIYPGNSDTRYNQKFKDRVTITADTSASTAYMELSSLRSEDTAVYYCTRSYDYGDLDYWGQGTTVTVSS
[1]
  MFI: 1640 MFI
[2]
  MFI: 120 MFI
[3]
  MFI: 6880 MFI
[4]
  Emax of OD450 nm binding value: 0.05 OD450 nm
[5]
  MFI: 178 MFI
[6]
  MFI: 109 MFI
[7]
  MFI: 5840 MFI
[8]
  MFI at 0.00128 nM: 107 MFI
  MFI at 0.0064 nM: 129 MFI
  MFI at 0.032 nM: 205 MFI
  MFI at 0.16 nM: 430 MFI
  MFI at 0.8 nM: 692 MFI
  MFI at 4 nM: 783 MFI
  MFI at 20 nM: 855 MFI
  MFI at 100 nM: 969 MFI
[9]
  MFI: 166 MFI
[10]
  MFI: 367 MFI
[11]
  MFI: 11000 MFI
[12]
  MFI: 400 MFI
[13]
  MFI: 199 MFI
[14]
  MFI: 12400 MFI
[15]
  MFI: 12900 MFI
[16]
  MFI: 27000 MFI
[17]
  MFI: 258 MFI
[18]
  MFI: 86 MFI
[19]
  Kd: 325 pM
  koff: 0.00194 s⁻¹
  kon: 5.96e+06 M⁻¹ s⁻¹
[20]
  MFI: 11900 MFI
[21]
  MFI: 27100 MFI
[22]
  MFI: 452 MFI
[23]
  MFI: 383 MFI
[24]
  MFI: 327 MFI
[25]
  MFI: 423 MFI
[26]
  Emax of OD450 nm binding value: 0.08 OD450 nm
[27]
  MFI: 1540 MFI
[28]
  MFI: 19900 MFI

B2: Hab009VL2aVH1-hFc (scFv, part only; not given: VL-VH linker and human IgG1 Fc, V domains shown, not shown: another chain or arm of the molecule; a dimerising Fc or GST; small tags and cut ends)
VL: DIVMTQSPLSLPVTPGEPASISCRASQTISDYLHWYLQKPGQSPRLLIKYASQSISGVPDRFSGSGSGTDFTLKISRVEAEDVGVYYCQQGHSFPLTFGQGTKLEIK
VH: EVQLVQSGAEVKKPGASVKVSCKASGYTFTSYWMHWVRQAPGQRLEWMGTIYPGNSDTRYNQKFKDRVTITADTSASTAYMELSSLRSEDTAVYYCTRSYDYGDLDYWGQGTTVTVSS
[1]
  MFI: 13700 MFI
[2]
  MFI: 1340 MFI
[3]
  MFI: 24300 MFI
[4]
  Emax of OD450 nm binding value: 0.07 OD450 nm
[5]
  MFI: 3160 MFI
[6]
  MFI: 238 MFI
[7]
  MFI: 5930 MFI
[8]
  MFI at 0.00128 nM: 108 MFI
  MFI at 0.0064 nM: 128 MFI
  MFI at 0.032 nM: 201 MFI
  MFI at 0.16 nM: 432 MFI
  MFI at 0.8 nM: 683 MFI
  MFI at 4 nM: 784 MFI
  MFI at 20 nM: 825 MFI
  MFI at 100 nM: 929 MFI
[9]
  MFI: 272 MFI
[10]
  MFI: 358 MFI
[11]
  MFI: 12000 MFI
[12]
  MFI: 438 MFI
[13]
  MFI: 210 MFI
[14]
  MFI: 12600 MFI
[15]
  MFI: 13100 MFI
[16]
  MFI: 28400 MFI
[17]
  MFI: 300 MFI
[18]
  MFI: 172 MFI
[19]
  Kd: 328 pM
  koff: 0.0019 s⁻¹
  kon: 5.79e+06 M⁻¹ s⁻¹
[20]
  MFI: 12700 MFI
[21]
  MFI: 28200 MFI
[22]
  MFI: 476 MFI
[23]
  MFI: 398 MFI
[24]
  MFI: 338 MFI
[25]
  MFI: 5450 MFI
[26]
  Emax of OD450 nm binding value: 0.06 OD450 nm
[27]
  MFI: 1610 MFI
[28]
  MFI: 27600 MFI

B3: Hab006VL4VH2-hFc (scFv, part only; not given: scFv linker and human IgG1 Fc, V domains shown, not shown: another chain or arm of the molecule; a dimerising Fc or GST; small tags and cut ends)
VL: DIVMTQSPDSLAVSLGERATINCRATKSISKYLAWYQQKPGQTNKLLIFSGSTLQSGVPDRFSGSGSGTDFTLTISSLQAEDVAVYYCQQHHEYPYTFGGGTKVEIK
VH: EVQLVQSGAEVKKPGASVKVSCKASGYTFTSYWMHWVRQAPGQRLEWMGVIDPSDSLANYNQEFKGRVTLTVDTSASTAYMELSSLRSEDTAVYYCARDSTVVAPMDYWGQGTTVTVSS
[1]
  MFI: 3970 MFI
[2]
  MFI: 276 MFI
[3]
  MFI: 7810 MFI
[4]
  Emax of OD450 nm binding value: 0.05 OD450 nm
[5]
  MFI: 494 MFI
[6]
  MFI: 118 MFI
[7]
  MFI: 4700 MFI
[8]
  MFI at 0.00128 nM: 199 MFI
  MFI at 0.0064 nM: 281 MFI
  MFI at 0.032 nM: 528 MFI
  MFI at 0.16 nM: 1050 MFI
  MFI at 0.8 nM: 1330 MFI
  MFI at 4 nM: 1500 MFI
  MFI at 20 nM: 1620 MFI
  MFI at 100 nM: 1870 MFI
[9]
  MFI: 185 MFI
[10]
  MFI: 577 MFI
[11]
  MFI: 11900 MFI
[12]
  MFI: 580 MFI
[13]
  MFI: 243 MFI
[14]
  MFI: 14500 MFI
[15]
  MFI: 15400 MFI
[16]
  MFI: 10500 MFI
[17]
  MFI: 343 MFI
[18]
  MFI: 99 MFI
[19]
  Kd: 395 pM
  koff: 0.000156 s⁻¹
  kon: 394000 M⁻¹ s⁻¹
[20]
  MFI: 13800 MFI
[21]
  MFI: 9180 MFI
[22]
  MFI: 458 MFI
[23]
  MFI: 605 MFI
[24]
  MFI: 495 MFI
[25]
  MFI: 1340 MFI
[26]
  Emax of OD450 nm binding value: 0.06 OD450 nm
[27]
  MFI: 1340 MFI
[28]
  MFI: 8510 MFI
